The supplement of paper PMC9112550, “Optimization of the antimicrobial peptide Bac7 by deep mutational scanning” (BMC Biology, 2022)

Tested on: Escherichia coli TOP10
Assay: shrunken log2 fold change of peptide-encoding DNA abundance (4.5 h post-induction vs induction); higher = less antimicrobial activity (less host growth inhibition)
Conditions: time post-induction: 4.5 h; library: site-saturation at positions 5, 18, 19, 20
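Note: peptides expressed intracellularly from a pBAD plasmid library in pooled LB shake-flask culture, induced with 0.3% L-arabinose, DNA abundance read by NGS, three biological replicates, DESeq2 with apeglm shrinkage.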

Row | Sequence | shrunken log2 fold change
1 | RRIRFRPPRLPRPRPRPHSMPRP | -0.328
2 | RRIRFRPPRLPRPRPRPHSTPRP | -0.0436
3 | RRIRFRPPRLPRPRPRPHTFPRP | -0.778
4 | RRIRFRPPRLPRPRPRPHVGPRP | -0.224
5 | RRIRFRPPRLPRPRPRPHVRPRP | -0.271
6 | RRIRFRPPRLPRPRPRPHVWPRP | 0.491
7 | RRIRFRPPRLPRPRPRPHWMPRP | -0.457
8 | RRIRFRPPRLPRPRPRPHWNPRP | -0.653
9 | RRIRFRPPRLPRPRPRPHWTPRP | -0.301
10 | RRIRFRPPRLPRPRPRPIAVPRP | -0.116
11 | RRIRFRPPRLPRPRPRPIDVPRP | -0.146
12 | RRIRFRPPRLPRPRPRPIEFPRP | 0.0129
13 | RRIRFRPPRLPRPRPRPIEGPRP | 0.0922
14 | RRIRFRPPRLPRPRPRPIGRPRP | 0.00988
15 | RRIRFRPPRLPRPRPRPIGTPRP | -0.329
16 | RRIRFRPPRLPRPRPRPIHNPRP | -0.745
17 | RRIRFRPPRLPRPRPRPIHQPRP | -0.237
18 | RRIRFRPPRLPRPRPRPIIQPRP | -0.786
19 | RRIRFRPPRLPRPRPRPIKIPRP | -0.539
20 | RRIRFRPPRLPRPRPRPILNPRP | -0.692
21 | RRIRFRPPRLPRPRPRPILTPRP | -0.689
22 | RRIRFRPPRLPRPRPRPIMLPRP | -0.205
23 | RRIRFRPPRLPRPRPRPINFPRP | -0.601
24 | RRIRFRPPRLPRPRPRPINNPRP | -0.683
25 | RRIRFRPPRLPRPRPRPINTPRP | -0.761

Row | Sequence | shrunken log2 fold change
26 | RRIRFRPPRLPRPRPRPISIPRP | -0.697
27 | RRIRFRPPRLPRPRPRPISTPRP | -0.24
28 | RRIRFRPPRLPRPRPRPISWPRP | -0.132
29 | RRIRFRPPRLPRPRPRPITGPRP | -0.107
30 | RRIRFRPPRLPRPRPRPITRPRP | 0.114
31 | RRIRFRPPRLPRPRPRPITVPRP | -0.177
32 | RRIRFRPPRLPRPRPRPIVTPRP | -0.075
33 | RRIRFRPPRLPRPRPRPIWEPRP | -0.0122
34 | RRIRFRPPRLPRPRPRPIWWPRP | 0.617
35 | RRIRFRPPRLPRPRPRPKADPRP | -0.0989
36 | RRIRFRPPRLPRPRPRPKCAPRP | -0.0345
37 | RRIRFRPPRLPRPRPRPKDSPRP | -0.335
38 | RRIRFRPPRLPRPRPRPKDWPRP | 0.233
39 | RRIRFRPPRLPRPRPRPKFFPRP | -0.00377
40 | RRIRFRPPRLPRPRPRPKFSPRP | -0.0365
41 | RRIRFRPPRLPRPRPRPKGCPRP | 0.418
42 | RRIRFRPPRLPRPRPRPKHEPRP | 0.286
43 | RRIRFRPPRLPRPRPRPKHPPRP | 0.194
44 | RRIRFRPPRLPRPRPRPKIEPRP | -0.202
45 | RRIRFRPPRLPRPRPRPKKCPRP | 0.107
46 | RRIRFRPPRLPRPRPRPKKIPRP | -0.028
47 | RRIRFRPPRLPRPRPRPKLSPRP | -0.258
48 | RRIRFRPPRLPRPRPRPKLTPRP | -0.069
49 | RRIRFRPPRLPRPRPRPKLWPRP | 0.287
50 | RRIRFRPPRLPRPRPRPKMNPRP | -0.345

Row | Sequence | shrunken log2 fold change
51 | RRIRFRPPRLPRPRPRPKNQPRP | -0.195
52 | RRIRFRPPRLPRPRPRPKPCPRP | 0.3
53 | RRIRFRPPRLPRPRPRPKQLPRP | -0.123
54 | RRIRFRPPRLPRPRPRPKQMPRP | 0.382
55 | RRIRFRPPRLPRPRPRPKQQPRP | 0.146
56 | RRIRFRPPRLPRPRPRPKRGPRP | 0.0365
57 | RRIRFRPPRLPRPRPRPKSIPRP | -0.0406
58 | RRIRFRPPRLPRPRPRPKSNPRP | -0.358
59 | RRIRFRPPRLPRPRPRPKTNPRP | 0.0585
60 | RRIRFRPPRLPRPRPRPKTRPRP | 0.277
61 | RRIRFRPPRLPRPRPRPKVAPRP | 0.192
62 | RRIRFRPPRLPRPRPRPKVNPRP | -0.266
63 | RRIRFRPPRLPRPRPRPKVQPRP | 0.199
64 | RRIRFRPPRLPRPRPRPKYQPRP | -0.534
65 | RRIRFRPPRLPRPRPRPLAHPRP | -0.13
66 | RRIRFRPPRLPRPRPRPLAPPRP | 0.193
67 | RRIRFRPPRLPRPRPRPLEEPRP | -0.0138
68 | RRIRFRPPRLPRPRPRPLELPRP | 0.0344
69 | RRIRFRPPRLPRPRPRPLESPRP | -0.00313
70 | RRIRFRPPRLPRPRPRPLFFPRP | -0.259
71 | RRIRFRPPRLPRPRPRPLFQPRP | -0.446
72 | RRIRFRPPRLPRPRPRPLGWPRP | 0.494
73 | RRIRFRPPRLPRPRPRPLKMPRP | -0.428
74 | RRIRFRPPRLPRPRPRPLLEPRP | -0.0853
75 | RRIRFRPPRLPRPRPRPLLPPRP | -0.142
